B1: Amyloid-like protein 1: CSF protein bound to fibrils (protein, UniProt P51693 39-650, looked up)
Amyloid beta precursor like …: SLAGGSPGAAEAPGSAQVAGLCGRLTLHRDLRTGRWEPDPQRSRRCLRDPQRVLEYCRQMYPELQIARVEQATQAIPMERWCGGSRSGSCAHPHHQVVPFRCLPGEFVSEALLVPEGCRFLHQERMDQCESSTRRHQEAQEACSSQGLILHGSGMLLPCGSDRFRGVEYVCCPPPGTPDPSGTAVGDPSTRSWPPGSRVEGAEDEEEEESFPQPVDDYFVEPPQAEEEEETVPPPSSHTLAVVGKVTPTPRPTDGVDIYFGMPGEISEHEGFLRAKMDLEERRMRQINEVMREWAMADNQSKNLPKADRQALNEHFQSILQTLEEQVSGERQRLVETHATRVIALINDQRRAALEGFLAALQADPPQAERVLLALRRYLRAEQKEQRHTLRHYQHVAAVDPEKAQQMRFQVHTHLQVIEERVNQSLGLLDQNPHLAQELRPQIQELLHSEHLGPSELEAPAPGGSSEDKGGLQPPDSKDDTPMTLPKGSTEQDAASPEKEKMNPLEQYERKVNASVPRGFPFHSSEIQRDELAPAGTGVSREAVSGLLIMGAGGGSLIVLSMLLLRRKKPYGAISHGVVEVDPMLTLEEQQLRELQRHGYENPTYRFLEERP
B2: Calsyntenin-1: CSF protein bound to fibrils (protein, UniProt O94985 29-981, looked up)
Calsyntenin-1: ARVNKHKPWLEPTYHGIVTENDNTVLLDPPLIALDKDAPLRFAESFEVTVTKEGEICGFKIHGQNVPFDAVVVDKSTGEGVIRSKEKLDCELQKDYSFTIQAYDCGKGPDGTNVKKSHKATVHIQVNDVNEYAPVFKEKSYKATVIEGKQYDSILRVEAVDADCSPQFSQICSYEIITPDVPFTVDKDGYIKNTEKLNYGKEHQYKLTVTAYDCGKKRATEDVLVKISIKPTCTPGWQGWNNRIEYEPGTGALAVFPNIHLETCDEPVASVQATVELETSHIGKGCDRDTYSEKSLHRLCGAAAGTAELLPSPSGSLNWTMGLPTDNGHDSDQVFEFNGTQAVRIPDGVVSVSPKEPFTISVWMRHGPFGRKKETILCSSDKTDMNRHHYSLYVHGCRLIFLFRQDPSEEKKYRPAEFHWKLNQVCDEEWHHYVLNVEFPSVTLYVDGTSHEPFSVTEDYPLHPSKIETQLVVGACWQEFSGVENDNETEPVTVASAGGDLHMTQFFRGNLAGLTLRSGKLADKKVIDCLYTCKEGLDLQVLEDSGRGVQIQAHPSQLVLTLEGEDLGELDKAMQHISYLNSRQFPTPGIRRLKITSTIKCFNEATCISVPPVDGYVMVLQPEEPKISLSGVHHFARAASEFESSEGVFLFPELRIISTITREVEPEGDGAEDPTVQESLVSEEIVHDLDTCEVTVEGEELNHEQESLEVDMARLQQKGIEVSSSELGMTFTGVDTMASYEEVLHLLRYRNWHARSLLDRKFKLICSELNGRYISNEFKVEVNVIHTANPMEHANHMAAQPQFVHPEHRSFVDLSGHNLANPHPFAVVPSTATVVIVVCVSFLVFMIILGVFRIRAAHRRTMRDQDTGKENEMDWDDSALTITVNPMETYEDQHSSEEEEEEEEEEESEDGEEEDDITSAESESSEEEEGEQGDPQNATRQQQLEWDDSTLSY
B3: α2-HS-glycoprotein: CSF protein bound to fibrils (protein, UniProt P02765 19-300; P02765 341-367, looked up)
Alpha-2-HS-glycoprotein chain … 1: APHGPGLIYRQPNCDDPETEEAALVAIDYINQNLPWGYKHTLNQIDEVKVWPQQPSGELFEIEIDTLETTCHVLDPTPVARCSVRQLKEHAVEGDCDFQLLKLDGKFSVVYAKCDSSPDSAEDVRKVCQDCPLLAPLNDTRVVHAAKAALAAFNAQNNGSNFQLEEISRAQLVPLPPSTYVEFTVSGTDCVAKEATEAAKCNLLAEKQYGFCKATLSEKLGGAEVAVTCMVFQTQPVSSQPQPEGANEAVPTPVVDPDAPPSPPLGAPGLPPAGSPPDSHVL
Alpha-2-HS-glycoprotein chain … 2: TVVQPSVGAAAGPVVPPCPGRIRHFKV
B4: Fibulin-1: CSF protein bound to fibrils (protein, UniProt P23142 30-703, looked up)
Fibulin-1: DVLLEACCADGHRMATHQKDCSLPYATESKECRMVQEQCCHSQLEELHCATGISLANEQDRCATPHGDNASLEATFVKRCCHCCLLGRAAQAQGQSCEYSLMVGYQCGQVFQACCVKSQETGDLDVGGLQETDKIIEVEEEQEDPYLNDRCRGGGPCKQQCRDTGDEVVCSCFVGYQLLSDGVSCEDVNECITGSHSCRLGESCINTVGSFRCQRDSSCGTGYELTEDNSCKDIDECESGIHNCLPDFICQNTLGSFRCRPKLQCKSGFIQDALGNCIDINECLSISAPCPIGHTCINTEGSYTCQKNVPNCGRGYHLNEEGTRCVDVDECAPPAEPCGKGHRCVNSPGSFRCECKTGYYFDGISRMCVDVNECQRYPGRLCGHKCENTLGSYLCSCSVGFRLSVDGRSCEDINECSSSPCSQECANVYGSYQCYCRRGYQLSDVDGVTCEDIDECALPTGGHICSYRCINIPGSFQCSCPSSGYRLAPNGRNCQDIDECVTGIHNCSINETCFNIQGGFRCLAFECPENYRRSAATLQQEKTDTVRCIKSCRPNDVTCVFDPVHTISHTVISLPTFREFTRPEEIIFLRAITPPHPASQANIIFDITEGNLRDSFDIIKRYMDGMTVGVVRQVRPIVGPFHAVLKLEMNYVVGGVVSHRNVVNVHIFVSEYWF
B5: Cystatin-C: CSF protein bound to fibrils (protein, UniProt P01034 27-146, looked up)
Cystatin-C: SSPGKPPRLVGGPMDASVEEEGVRRALDFAVGEYNKASNDMYHSRALQVVRARKQIVAGVNYFLDVELGRTTCTKTQPNLDNCPFHDQPHLKRKAFCSFQIYAVPWQGTMTLSKSTCQDA

target: T1, C-36 fibrils (Homo sapiens, UniProt P01009); experiment: Fibril incubation with CSF, quantitative MS/MS of bound proteins; assay type: binding; design: key to Identification status of CSF protein bound: C-36: *: Identified, but not quantified; —: Not identified in any of the samples; conditions: 4:1 w/w CSF protein:fibril
T1 construct: the 36 residue C-terminal fragment of α1-antitrypsin (C-36)
Procedure: (§1) Plasma and CSF solutions were centrifuged (40,000 g, 20 min) to remove any aggregates. The protein concentration was determined using 280 nm absorbance assuming 1 Abs = 1 mg/mL. […] Control samples (without fibril material) were prepared similarly. All samples were incubated at room temperature for one hour under gentle agitation. Fibrils and fibril-bound proteins were pelleted by centrifugation at 17,000 g for 30 minutes. The supernatant (175 μL) was removed and the aggregate was re-suspended in 175 μL PBS and pelleted again before further preparation for gel analysis and spin-filter assisted digest for quantitative MS/MS.
(§2) The fibril-protein pellets were transferred to spin-filters (0.22 μm), washed twice in PBS (100 μL) and once in 1 M NaCl (100 μL). The fibrils and fibril-bound proteins were dissolved by one-hour incubation in 100 μL 6 M guanidinium chloride followed by elution from the spin-filter. The eluted proteins were loaded onto a 3 kDa MWCO filter unit for filter-assisted unfolding, reduction, alkylation, and trypsin digestion. In brief, samples were washed twice in 8 M urea, once in 8 M urea with 50 mM DTT, once in 8 M urea with 50 mM iodoaceteamide, and twice in 8 M Urea. The filter units were dried by centrifugation (14,000 g in 30 minutes) after every addition. Trypsin digestion was carried out with 0.25 μg sequencing grade trypsin from Sigma Aldrich in 50 mM ammonium bicarbonate overnight at 37 °C. The tryptic peptides were collected by centrifugation, acidified with TFA (0.1%) and micro-purified using POROS R2 column material (Applied Biosystems) packed in P200 pipette tips (Sarstedt).
(§3) LC-MS/MS analyses were performed on an EASY-nLC II system (Thermo Fisher Scientific) connected to a TripleTOF 5600+ mass spectrometer (Sciex) equipped with a NanoSpray III source (Sciex) and operated under Analyst TF 1.6.0 control.
(§4) The micro-purified tryptic peptides were dissolved in 0.1% formic acid, injected and trapped on an in-house packed trap column (2 cm × 100 μm I.D) with RP ReproSil-Pur C18-AQ 3 μm resin (Dr. Maisch GmbH). Peptides were eluted from the trap column and separated on a 15 cm analytical column (75 μm i.d.) packed in-house in a pulled emitter with RP ReproSil-Pur C18-AQ 3 μm resin (Dr. Maisch GmbH). Elution from the analytical column was performed with a linear gradient from 5% to 35% phase B (90% acetonitrile with 0.1% formic acid) over 20 min for protein identification and 50 min for quantitative analysis, respectively.
(§5) All samples were analysed three times, yielding nine MS/MS experiments for each fibril for both plasma and CSF. For the area-based extracted ion chromatogram (XIC) quantification, the acquisition method was set up as an information-dependent acquisition (IDA) experiment collecting up to 25 MS/MS spectra in each 1.6 sec cycle using an exclusion window of 6 sec.
(§6) XIC quantification was based on the average ion intensity of the three most abundant peptides for each protein. Only proteins quantified in at least four out of nine MS/MS experiments per fibril were included in the quantification. The total ion scores were visualized after grouping the proteins according to function (Figure S11).
(§7) For each MS/MS experiment, the ion intensities of the individual proteins were normalized to the total ion intensity of that MS/MS experiment to achieve a relative protein composition. The contribution of each protein was averaged over all nine MS/MS experiments (Tables 1 and 2).

T1 sequence (P01009 383-418 limits assumed): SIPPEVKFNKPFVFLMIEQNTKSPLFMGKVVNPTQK

Molecule | Relative composition of CSF proteins bound: C-36
B1 | 2.0 ± 0.1 % of total protein
B2 | 1.2 ± 0.1 % of total protein
B3 | 3.6 ± 0.7 % of total protein
B4 | 1.2 ± 0.2 % of total protein

same assay, conditions: symbol cells

Molecule | Identification status of CSF protein bound: C-36
B5 | *

target: T2, glucagon fibrils (Homo sapiens, UniProt P01275); experiment: as above; assay type: binding; conditions: 4:1 w/w CSF protein:fibril
T2 construct: fibrils of the peptide hormone glucagon
Procedure: as §1, §2, §3, §4, §5, §6, §7

T2 sequence (P01275 53-81 limits assumed): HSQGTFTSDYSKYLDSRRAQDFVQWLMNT

Molecule | Relative composition of CSF proteins bound: Glucagon
B1 | 0.6 ± 0.0 % of total protein
B2 | 0.4 ± 0.2 % of total protein
B5 | 0.9 ± 0.0 % of total protein
B3 | 0.7 ± 0.2 % of total protein
B4 | 0.3 ± 0.0 % of total protein

test system: T3, Ab2 fibrils; experiment: as above; assay type: binding, human; conditions: 4:1 w/w CSF protein:fibril
T3 construct: Two structurally distinct fibrils of the Aβ(1–40) peptide associated with AD
Procedure: as §1, §2, §3, §4, §5, §6, §7

Molecule | Relative composition of CSF proteins bound: Ab2
B1 | 3.4 ± 0.7 % of total protein
B2 | 1.8 ± 0.8 % of total protein
B5 | 6.0 ± 0.6 % of total protein
B3 | 1.9 ± 0.6 % of total protein
B4 | 1.3 ± 0.1 % of total protein

test system: T4, Ab1 fibrils; experiment: as above; assay type: binding, human; conditions: 4:1 w/w CSF protein:fibril
T4 construct: Synthetic amyloid β peptide 1–40 was purchased from Caslo Aps (Lyngby, Denmark); purchased Caslo Aps (Lyngby, Denmark); host or cells: synthetic peptide
Procedure: as §1, §2, §3, §4, §5, §6, §7

Molecule | Relative composition of CSF proteins bound: Ab1
B1 | 2.8 ± 0.2 % of total protein
B5 | 3.9 ± 0.4 % of total protein
B3 | 1.1 ± 0.0 % of total protein
B4 | 1.4 ± 0.1 % of total protein

test system: T5, FAS4-AD aggregates; experiment: as above; assay type: binding, human; design: key to Identification status of CSF protein bound: FAS4-AD: *: Identified, but not quantified; —: Not identified in any of the samples; conditions: symbol cells
T5 construct: aggregates of a mutated version of the FAS1-4 domain of TGFBIp
Procedure: as §1, §2, §3, §4, §5, §6, §7

Molecule | Identification status of CSF protein bound: FAS4-AD
B1 | —
B2 | —
B5 | *
B3 | —
B4 | —

target: αSN fibrils (Homo sapiens, UniProt P37840); experiment: as above; assay type: binding; design: key to Identification status of CSF protein bound: αSN: *: Identified, but not quantified; —: Not identified in any of the samples; conditions: 4:1 w/w CSF protein:fibril
Procedure: as §1, §2, §3, §4, §5, §6, §7

Molecule | Relative composition of CSF proteins bound: αSN
B2 | 3.1 ± 0.4 % of total protein

same assay, conditions: symbol cells

Molecule | Identification status of CSF protein bound: αSN
B1 | *
B5 | *
B3 | *
B4 | —

Source: publication PMC6405930, “Conservation of the Amyloid Interactome Across Diverse Fibrillar Structures” (Scientific Reports, 2019)
